Measurements published in a protein production outcome set (Wang et al. 2014).

Experiment: label from the status in PepcDB records

| Sequence | protein production |
| --- | --- |
| MQIFLLFLSFAKAIHKIILIYGETAFPTVCSALQIYSLMKLKTLICATTAFWACCSCTSGELSPVDYVDPFIGTGFHGHTYPGATVPFGAVQLSPDTRAGNWDACSGYHYNDTTLKGFSHTHLSGTGCIDLGDILFRPTTLKPDLTTESIYQPAAFSHKDEDASAGYYSVVLKEEGIKAELTVTAHAGMHRYTFSSGKEASIIIDLTHLLDNEYIYEAELEQTAANEITGMRRTRGWTDNQYVYFVAQFSKPFQAIDFIQNKKMVSAGVKLNGTDLQACLSFDNSNGEPVIAKVGLSIVSEKNARENLETEVIGFDFDAVRSAARSAWEQALSAITVKGGNTDDLKNFYTAMYHSMVVPNVVSDVNGEYRRHNMEIGQLPKGKVQYSTFSLWDTFRAWNPLMTLIDTTLVNNMINSFLDIYESSGELPIWPLSAGETGTMIGYHAVSVIADAYMKGIRGFDAEKALEAMVVSSEKNKKGADYYIQNGFIPSNIKKESISCLLEFAYDDWCIARMAQEMGKDDIYQKYIQRSQNYINVFDGNTKFFRPKRMDGNWETPFNPIEIGRAYTEATAWQYRFFVPHDVSGMAQLFGGKKEFITALDSIFTVESDVHGDLVDITGLIGQYVHGNEPSHHIAYLYDYVGQPWKTQEMTRRLLHEMYAPTPEGIIGNEDCGQMSGWYILSSLGIYSVCPGSNEFALTTPLFEKAVVNLANRKTLTILANNPKKNVYITKVELNGQPIDVNFITYAQLMEGGELRFTLSDKPNMERGVSSEASPYSYTKDEVVSIPYVDKDLNLFMDKVTVALATTTKDAEIRYTLDGSEPTEQSALYEQPFELDKTTLIKAKGFKEGLRSSRTLSISATKAELKAALSVNPTQNGTSYKYFEGTYQKVADVEKSPLLESGVMPEPSIKGAKQEDHFGYIFSGLINVPEDGVYTFQTRSDDGSVLYIHDEQVVNNDASHAAIPATGMVALKKGFHPYKLYYFEDYEGEYLSWAWKLPSAEKLAPIPASALFVK | failed |
| MTLEWEEFLDPYIQAVGELKIKLRGIRKQYRKQNKHSPIEFVTGRVKPIESIKEKMARRGITYATLEHDLQDIAGLRVMVQFVDDVKEVVDILHKRQDMRIIQERDYITHRKASGYRSYHVVVEYTVDTINGAKTILAEIQIRTLAMNFWATIEHSLNYKYQGDFPDEIKKRLEITARIAHQLDEEMGEIRDDIQEAQALFDPLSRKLNDGVGNSDDTDEEYR | not failed |
| MSRGDKMLKFEIKARDGAGRIGKLEVNGKKIETPAIMPVVNPKQMVVEPKELEKMGFEIIITNSYIIYKDEELRRKALELGIHRMLDYNGIIEVDSGSFQLMKYGSIEVSNREIIEFQHRIGVDIGTFLDIPTPPDAPREQAVKELEITLSRAREAEEIKEIPMNATIQGSTYTDLRRYAARRLSSMNFEIHPIGGVVPLLESYRFRDVVDIVISSKMALRPDRPVHLFGAGHPIVFALAVAMGVDLFDSASYALYAKDDRYMTPEGTKRLDELDYFPCSCPVCSKYTPQELREMPKEERTRLLALHNLWVIKEEIKRVKQAIKEGELWRLVDERARSHPKLYSAYKRLLEHYTFLEEFEPITKKSALFKISNESLRWPVVRRAKERAKSINERFGELVEHPIFGRVSRYLSLTYPFAQSEAEDDFKIEKPTKEDAIKYVMAIAEYQFGEGASRAFDDAKVELSKTGMPRQVKVNGKRLATVRADDGLLTLGIEGAKRLHRVLPYPRMRVVVNKEAEPFARKGKDVFAKFVIFADPGIRPYDEVLVVNENDELLATGQALLSGREMIVFQYGRAVKVRKGVE | not failed |
| ITSVQPPTGLQEWLKMFQSWSGPEKLLALDELIDSCEPTQVKHMMQVIEPQFQRDFISLLPKELALYVLSFLEPKDLLQAAQTCRYWRILAEDNLLWREKCKEEGIDEPLHIKRRKVIKPGFIHSPWKSAYIRQHRIDTNWRRGELKSPKVLKGHDDHVITCLQFCGNRIVSGSDDNTLKVWSAVTGKCLRTLVGHTGGVWSSQMRDNIIISGSTDRTLKVWNAETGECIHTLYGHTSTVRCMHLHEKRVVSGSRDATLRVWDIETGQCLHVLMGHVAAVRCVQYDGRRVVSGAYDFMVKVWDPETETCLHTLQGHTNRVYSLQFDGIHVVSGSLDTSIRVWDVETGNCIHTLTGHQSLTSGMELKDNILVSGNADSTVKIWDIKTGQCLQTLQGPNKHQSAVTCLQFNKNFVITSSDDGTVKLWDLKTGEFIRNLVTLESGGSGGVVWRIRASNTKLVCAVGSRNGTEETKLLVLDFDVDMK | failed |
| MSVMYKKILYPTDFSETAEIALKHVKAFKTLKAEEVILLHVIDEREIKKRDIFSLLLGVAGLNKSVEEFENELKNKLTEEAKNKMENIKKELEDVGFKVKDIIVVGIPHEEIVKIAEDEGVDIIIMGSHGKTNLKEILLGSVTENVIKKSNKPVLVVKRKNS | not failed |
| MTSPENPDLPDADDAYVDSGPGTQPASLEDLDMDSASTMRPMATQAVYRPEFDDTDGTSRGTVVTEAYDQVTMATRALSPMRRLGGGLVEIPRVPERDPLTALMTNPVVAESKRFCWNCGKPVGRSTPDGRALSEGWCPHCGSPYSFLPQLSPGDIVADQYEIKGCIAHGGLGWVYLAFDKNVNDRPVVLKGLVHSGDAEAQAIAMAERQFLAEVTHPGIVKIYNFVEHEDKHGNPVGYIVMEYVGGTSLKQARGAKLPVAEAIGYMLEILPALGYLHSIGLAYNDLKPENIMITEEQLKLIDLGAVSRLNSYGYLYGTPGYQAPEIVRTGPTVATDIYTVGRTLAALTLSLRTRRGRYVDGLPSDDPVLETYDSYHRLLRRAIDPDPRRRFTSAEEMSSQLLGVLREVVATDTGVPRPGLSTVFSPSRSTFGVDLLVAHTDVYVDGQVHSEKLTAQEIVRALPVPLVDRTDVGAPMLVASVLSEPVHTLDQLRAARHGALDTEGIDLNESVELPLMEVRALLDLGDVAKATRKLEDLAARVGWRWRLVWFKAVSEMLSADYDSATKHFTEVLDTLPGELAPKLALAATAELAGTADELKFYKTVWSTDNGVISAGFGLARAQSVAGERDMAVQTLDEVPPTSRHFTTARLTSAVTLLSGRSTSEITEQHIRDAARRVEALPDSEPRVLQIRALVLGTALDWLADNTASSNHILGFPFTEHGLKLGVEASLRALARIAPTQSHRYALVDLANSVRPMSTF | failed |
| MMTKKDLPLRQLLKLRNSWIAWVVFLVSVVATVLLWQVSIRLVEDRTEARFRTQSLQLKTAIEERLLNYEQVLAGSAGLFAVTGKVTRDQWKEYVDNVDINRYYPGIEGIGYVERIGVREMADHIASVRAEGLYNYLVKPLGTGPYYYPMVYLEPGTERNRKALGYDAFSDPIHRTAMEQARDDAIPTVTGKVVLVQESVAEDQAGFLMYYPVFQGGEIPEIRAERRMMLAGYVFSAFRMNNLIDGIVGLISPFLDVRIYDSGVVARDTLMYGSNLGSLDNEFSFEMSQTIRHGGREWLLQTRSTPAFDYLAADPRPPIVLGSGLAISLLLWLFVLALIRSRLIAQVSAGRYRAITEGAANVTLVMDRRGRPLYASPSSRDILGFDPDKVEALEFEKLVHMDDWSHLQRGFEESMASPGKQMPVVRARVRDADGQWRDMEGTFTAMLSVPGVNGVVLSLRDLTQLKAAQSELHRLAFYDPLTGLANRQLFRDRLNHVVRRSRRSGEAAALMFLDLDGFKRINDTLGHDAGDELLRQVAQWLEGCVREEDSVARLGGDEFVVLLSRISGSEAAGKVAENILRRLCQRIRLNDHEVGVTVSIGITMIPHDSEDAGALMKYADLAMYRAKELGRNTYQFFTPAMNIQAARRLLQQEELATALDGDRFVLHYQPKVDLATQRVIGVEAFLRWHHPEKGLVSAQQFITLAEETGLIIRLGELALRQACIQVQALERAGFESLKMAVNFSVRQLTDSGFLDMIRRVITETGVSPERLELEMPAELLNEDPRMLRELLVSLNDLGVCLILDDFGTGSCSLVALQQLPLDVIKIDHRFIRDIPYNVSATDVASAVIALAHKLHLTVVAEGVETLQQLTFLKSAGCAQCQGNLFSYPLDEDALIGFLIRQYEKPLIS | failed |
| MQDEYDAADLSLGVSDVTLVGEVLDTEAVRTFDRDDGSEGRVSNLVVGDETGRVRVTLWDDQADTATDLDAGAVVEIVDGYVREREGSLELHVGDTGAVTPVPDADVSFVPLEHHHHHH | not failed |
| MLKTVKLYARKAWNWLTSMRTALALLFLLAIAAIPGALLPQRSLNESNVIEYIENNGKLAEFYDKIQLFDVFSSTWFTAIYVLLLISLVGCILPRSWEHYKAMRAPVVRAPRNLERLAHNGEGLVEKREEEVEKDARKLLKGWKITEYSAEEDRAGVRSIAAEKGYTRELFNLIFHLGIVGMIVTAGLGRLFYYEGHVIVVTDGEQNQQNSVFCNTATANYDSFRAGANFDGTGLTTFCFEAHDFSADYLANGQAEMFRSNISYAVGDDIQNDPETWEDYELRVNHPLRIEGDRVYLQGHGFAPTFTVTWPNGETRTQTVQWRPDDPTFFLSSGVVRFDPPAGMYPDLYERRQNQLAIQGLFAPTAEWEGDNNELLTSSYPAMRDPAVAIDIYRGDNGLDTGIGQSLFSLDSSLMHSGVLQKIERVNLQIGDTVTLDDGTTVSFDGASEFANYQISRDPTQNWVLVTTVISLVSLVGSLMIRRRRIWVRFYPQENGTTRVETGGLARTDRAGWGGEYEKFHRELLGLKEEDEDEEYFDHDD | failed |
| MTTNSSSNTVVVYHSGYGHTHRMAEAVAEGAEATLHAIDAEGNLSEDGWAALDAADAIIFGTPTYMGGPSWQFKKFADASSKPWFSAKWQDKVFGGFTNSASLNGDKLNTLQYLVLLAGQHGGLWVSLGIKPSNLKSSVRNDANRMGSYIAPMAQSDADAAPEEMSVGDLETARLYGARVANVARQHKSTERV | not failed |
| AIANDDRATAFNALKNKTVCVQGDGNSRQFYHALVEILSNHSSAIPVNKNGNDFCNAPFAQCPQDTYYFDLVDKSDNLSVKLYWRWAPEFSDIECPMKVPSGFTPGSNYSFPSGPDTLSCDINIMDAGQWELFEKDANVTTAGYSQGVSNLSKCFSSDKSAKYFWIAAYALTPEQLQIHLPYNNTDVERINEVATQGLNSTACVLNGYDVTVNAFNDTKEATTDGIHYLGWINEQVVHLFFNAVTNSSAPTVPSSNVSVTSPNVQLGQVPNLNPSTTNSFLPVQTIVTVPSSSATSASSGLNFGGSSQGGGSGIPQL | failed |
| MGFLDALMGNASEVDLGKLAAELSPILGDNEELQLAYKMVRDLFVFTSKRLILIDKQGVTGKKVSYHSIPYKAIVHFQVETAGTFDMDAELKLWISGQHEPLVKELKRGTDVVGIQKTIARYALG | not failed |
| MKIPIILTLMLFSLGFIFGFISINNLSKINDKDLSNYIPNIQFNFPSILTNNLKVIFLMLAGSITFGLSTFINLIFNGFNVGVLIGSISLTNEPLKLITALILPHGIFEISAMLISAVAGFKIPYKVTLYLLDKKEKPLTEEDIKDFLKLSLISIILIVIAAFIEVYITPKIATYLLT | failed |
| MSSLGSRSSTSIQPVILCGGSGTRLWPLSRQSYPKQFMPLLGGRSLLALTLERVSGLSSHPWCVASTEHRFLVIDAFEQCQLNGQVLLEPSARNTAAAIAVAALHAEDDALLLFCPADHYIPDAPAFVERVRQAQVAALDGALVTFGVFPTYPSSAYGYIEASAPWQDSGALHVQRFIEKPSATQAAELLLKGNMYWNAGIFLGLAREWRRALELHAPDILAACRDALREAESPVISRSGQTTVQSVVLHEPSFDACRSQSIDYAVMEHHRPICAVPFNGAWSDVGSWNAVADLSSADDKGNSSQGDAHLFDCQRTYVHAAGRRPVVALGLEDVCIVDTDDAVLVMPMSRAEDIKSVVGQLTDRSVAQALLHRRVARPWGWYDSLDQGERFQVKRIGVKPGASLSLQLHHHRAEHWTVVKGTAEITCGDRVFLLSENQSTYIPLGQRHRLHNPGKVELEIIEVQSGSYLAEDDIVRLEDNYGRTAPHCPGPAEADSTLIEQ | failed |
